From the supplement of paper PMC10126150
± gives the standard deviation of the averaged measurements.

System: ATP
Assay: switch fluorescence ratio, 500 uM ATP over buffer (Cy3 cluster intensity, sum of 5 cycles each) (fold (ratio)); higher = stronger signal-on switching upon ATP binding; sequences stand for … in TCGTCGGCAGCGTCAGATGTGTATAAGAGACAGTTTTTTTTTTTTTTTTTTTTTTTTT…TC
Conditions: aptamer strand: ATP DNA aptamer (quencher-CACCTGGGGGAGTATTGCGGAGGAAGG + anchor), 100 nM annealed; ATP concentration: 500 uM
Procedure, shortened: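 Imaging in selection buffer was followed by imaging after 15 min with 500 uM ATP at 22 °C, for Cy3-labelled switching-strand clusters annealed to 100 nM quencher-labelled ATP aptamer on a modified Illumina MiSeq flow-cell. Five of these buffer/ATP cycles ran, separated by NaOH stripping and re-annealing. The fluorescence ratio per cluster is summed target-cycle over summed buffer-cycle Cy3 intensity, averaged per switch-domain sequence; clusters outside 100-1000 RFU were removed.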
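Note: ATP exposure 15 min at 22 °C before imaging.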

Sequence | switch fluorescence ratio
CACCGAGTTA | 1.04 ± 0.032
CACCGGGATG | 1.31 ± 0.099
CACCGGGGTG | 0.995 ± 0.13
CACCGTGTCT | 1.02 ± 0.016
CACCTAGGCT | 1.055 ± 0.0048
CACCTGTTTT | 1.02 ± 0.033
CACGAAGACC | 1.197 ± 0.0068
CACGAAGGAA | 1.07 ± 0.019
CACGCGTGGA | 1.003 ± 0.0055
CACGGATTCA | 0.988 ± 0.043
CACGGCACGA | 1.36 ± 0.073
CACGGCAGGG | 1.01 ± 0.012
CACGGCGACA | 1.15 ± 0.027
CACGGGAACA | 1.082 ± 0.0053
CACGGGATGC | 1.58 ± 0.12
CACGGGGGCG | 1 ± 0.049
CACGGGGGGA | 0.99 ± 0.033
CACGGGTTGC | 1.02 ± 0.031
CACGGTTGGG | 0.976 ± 0.034
CACGTAGTAA | 1.13 ± 0.03
CACGTATGTT | 1.09 ± 0.021
CACGTCTAGG | 1.05 ± 0.048
CACGTGCCAG | 0.985 ± 0.043
CACTCGCCCG | 1.11 ± 0.042
CACTCTGCTG | 1.19 ± 0.012

Sequence | switch fluorescence ratio
CACTGCGTCT | 1.07 ± 0.11
CACTGGAAAA | 1.04 ± 0.036
CACTGGAGGG | 0.9937 ± 0.0042
CACTTAAGGC | 1.05 ± 0.072
CACTTATTCT | 0.973 ± 0.017
CACTTGGGTG | 1.064 ± 0.0066
CACTTGGTTG | 0.997 ± 0.051
CACTTGTTTT | 1.01 ± 0.011
CAGAAAGGAC | 1.02 ± 0.031
CAGAAGGGCC | 0.997 ± 0.089
CAGAAGGTTT | 1 ± 0.022
CAGACCGTTT | 1.01 ± 0.018
CAGACGAGGC | 1.044 ± 0.0037
CAGACGGATT | 0.996 ± 0.0085
CAGACGGTAC | 3.08 ± 0.089
CAGAGAATTT | 1.004 ± 0.0046
CAGAGATCAT | 0.993 ± 0.019
CAGAGGAGGG | 0.9747 ± 0.008
CAGAGGATCA | 0.996 ± 0.015
CAGAGGCCCG | 1.02 ± 0.032
CAGAGGGGTA | 1.01 ± 0.03
CAGAGGTATG | 1.01 ± 0.028
CAGAGTCGGG | 0.9963 ± 0.009
CAGAGTTTCT | 1.02 ± 0.021
CAGAGTTTTA | 1.02 ± 0.015

Sequence | switch fluorescence ratio
CAGATAAGGA | 1.01 ± 0.026
CAGATGCAGA | 1.065 ± 0.0071
CAGATGGGGA | 1.012 ± 0.0036
CAGATGTCAA | 0.993 ± 0.013
CAGATTTGGG | 1.01 ± 0.035
CAGCAACGTA | 1.05 ± 0.025
CAGCAATTAT | 2.95 ± 0.28
CAGCAGGGGG | 1.07 ± 0.068
CAGCATATAT | 2.32 ± 0.053
CAGCCCGGTC | 1.06 ± 0.048
CAGCGAACGG | 1.02 ± 0.026
CAGCGAAGAG | 1.01 ± 0.0025
CAGCGGCTTT | 0.977 ± 0.032
CAGCGGGATT | 0.995 ± 0.036
CAGCGGGGCC | 0.994 ± 0.011
CAGCTAAATT | 1.02 ± 0.047
CAGCTCAGCC | 1 ± 0.042
CAGCTGCATT | 1.305 ± 0.013
CAGCTGGATG | 0.993 ± 0.029
CAGCTGGTAT | 0.9992 ± 0.0011
CAGCTGGTTT | 1.004 ± 0.0077
CAGCTGTGGT | 0.985 ± 0.036
CAGCTTATCG | 0.995 ± 0.014
CAGCTTGGGT | 0.999 ± 0.04
CAGCTTTGAG | 1.01 ± 0.037

Sequence | switch fluorescence ratio
CAGGAAAATG | 0.994 ± 0.041
CAGGAATAGC | 1.25 ± 0.044
CAGGAATAGG | 1.03 ± 0.012
CAGGACAGCT | 1.02 ± 0.02
CAGGACCCGA | 0.99 ± 0.025
CAGGACCCGT | 0.9965 ± 0.0019
CAGGACTCCG | 0.98 ± 0.046
CAGGAGGCGG | 1.02 ± 0.037
CAGGAGGGCT | 0.993 ± 0.031
CAGGAGTCGG | 1.01 ± 0.014
CAGGATCATC | 0.9884 ± 0.0035
CAGGATGCAT | 1.01 ± 0.02
CAGGATGCCC | 0.9871 ± 0.0066
CAGGATGTAC | 1.05 ± 0.063
CAGGATTCTG | 1.03 ± 0.059
CAGGCAAGCT | 1.061 ± 0.0071
CAGGCAGGAC | 2.24 ± 0.17
CAGGCATGGT | 0.9891 ± 0.002
CAGGCCATGG | 1.03 ± 0.094
CAGGGAAGGT | 1.01 ± 0.033
CAGGGAATAA | 0.997 ± 0.011
CAGGGAATGT | 0.9984 ± 0.0077
CAGGGAATTG | 0.989 ± 0.075
CAGGGACGGT | 0.975 ± 0.058
CAGGGATTTG | 0.9599 ± 0.0044
